Data on 2 substances can be found in publication PMC11408864.

Assay [1] deals with TDP43-LCD condensates, 2% Alexa Fluor 488 labeled (UniProt Q13148).
For assay [2], the target named is TDP43 low complexity domain (TDP43-LCD) condensates (UniProt Q13148).
The target is the same in assay [3]. As to the kind of experiment: co-sedimentation; TDP43-LCD condensates (50 μM) mixed with spin-labeled Httex1(Q46)-35R1 monomers (pre-filtered, 100 kD) or fibrils (sonicated, unbundled), 20 μM starting concentration; 123,000g at 4 °C; Httex1 in pellet and supernatant quantified by EPR.

In the case of “Httex1(Q46) fibrils, Alexa Fluor 594 labeled (domain or fragment)”, the percent of TDP43-LCD condensates irregularly shaped after 4 h of co-incubation with Httex1(Q46) fibrils (∼10% without fibrils), fluorescence microscopy in assay [1] worked out at 60%. Besides, in assay [2], the t1/2 of ThT fluorescence of 50 μM TDP43-LCD with 5 μM and 20 μM Httex1(Q46) fibrils (∼4 h and ∼1.5 h; ∼7 h without fibrils) is 4 h.

“Httex1(Q46)-35R1 monomer (domain or fragment)” registered a concentration of Httex1(Q46) in the pellet in assay [3] below 0.3 µM.
